{"source": "patent US20220025002A1", "about": "(INSTITUT PASTEUR, published 2022)", "key": {"[1]": {"target": "T1, CC2-LZ domain of NEMO (mouse CC2-LZ) (mouse, UniProt O88522 251-337, limits assumed)", "T1 construct": "domain: CC2-LZ; The methods say that the mouse CC2-LZ was used in the fluorescence anisotropy assay; also called NOA; UBAN", "T1 sequence (O88522 251-337 limits assumed)": "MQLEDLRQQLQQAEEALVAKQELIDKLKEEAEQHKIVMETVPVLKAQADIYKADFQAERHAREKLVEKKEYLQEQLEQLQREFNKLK", "assay": "fluorescence polarization, labelled peptide fixed at 0.1 µM, CC2-LZ titrated", "experimental": "(§1) Anisotropy data were calculated using the Magellan software version 6.5. Prior experiments, the mouse CC2-LZ was extensively dialyzed in binding buffer containing 20 mM HEPES pH 7.4, 100 mM NaCl, and 0.05% P20 detergent (v/v). All experiments were performed in a 384 well plate (vol 25 μl) at room temperature. The BODIPY®-labeled peptide concentrations were fixed at 0.1 or 10 μM whereas the CC2-LZ concentration varied from 0 to 100 μM. Reference calibrated at 22 mP, was based on the fluorescence of the peptide alone. Each experimental binding curve was determined from at least 10 independent concentration points. The G-factor was calculated as previously described in Agou et al. [7], with a value of 0.75, which was observed constant within 5% upon all titrations. For analysis, the blank value corresponding to the value of buffer alone, was subtracted from all titration data. The integration time was 20 μs. Experiments were done in duplicate, and the KD was estimated by fitting the anisotropy data with the rectangular hyperbolic binding equation, using KaleidaGraph software as described elsewhere [1].\n(§2) For each peptide titration, various concentration of the target ranging from 0 to 100 μM and a fixed concentration of peptide at 0.1 or 10 μM were used at 25° C. […] For these reasons, all further titration experiments were performed with a fixed peptide concentration of 0.1 μM unless otherwise indicated."}, "[2]": {"target": "T2, NEMO (NF-kB essential modulator) in 70Z3-C3 pre-B lymphocytes (UniProt O88522 1-412, limits assumed)", "T2 sequence (O88522 whole entry)": "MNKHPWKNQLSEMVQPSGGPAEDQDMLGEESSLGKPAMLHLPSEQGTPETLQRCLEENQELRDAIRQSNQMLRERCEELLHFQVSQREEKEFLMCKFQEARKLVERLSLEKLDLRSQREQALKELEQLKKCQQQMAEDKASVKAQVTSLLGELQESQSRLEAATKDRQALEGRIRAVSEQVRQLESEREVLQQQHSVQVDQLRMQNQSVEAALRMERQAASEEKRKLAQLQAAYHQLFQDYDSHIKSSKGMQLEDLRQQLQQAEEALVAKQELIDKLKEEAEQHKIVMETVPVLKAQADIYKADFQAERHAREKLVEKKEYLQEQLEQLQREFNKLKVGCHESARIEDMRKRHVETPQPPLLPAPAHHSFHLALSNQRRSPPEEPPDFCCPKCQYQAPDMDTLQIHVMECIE", "assay": "cell-based or functional assay"}, "[3]": {"target": "T1, CC2-LZ domain of NEMO (mouse CC2-LZ)", "assay": "fluorescence polarization, labelled peptide, CC2-LZ titrated"}, "[4]": {"target": "T2, NEMO (NF-kB essential modulator) in …", "assay": "cell-based or functional assay", "remark": "listed apart in the source"}, "[5]": {"target": "T1, CC2-LZ domain of NEMO (mouse CC2-LZ)", "assay": "fluorescence polarization, labelled peptide fixed at 10 µM, CC2-LZ titrated", "experimental": "as §1, §2"}, "[6]": {"target": "NEMO (NF-kB essential modulator), human, in DLBCL cell lines (human, UniProt Q9Y6K9 1-419)", "sequence (Q9Y6K9 whole entry)": "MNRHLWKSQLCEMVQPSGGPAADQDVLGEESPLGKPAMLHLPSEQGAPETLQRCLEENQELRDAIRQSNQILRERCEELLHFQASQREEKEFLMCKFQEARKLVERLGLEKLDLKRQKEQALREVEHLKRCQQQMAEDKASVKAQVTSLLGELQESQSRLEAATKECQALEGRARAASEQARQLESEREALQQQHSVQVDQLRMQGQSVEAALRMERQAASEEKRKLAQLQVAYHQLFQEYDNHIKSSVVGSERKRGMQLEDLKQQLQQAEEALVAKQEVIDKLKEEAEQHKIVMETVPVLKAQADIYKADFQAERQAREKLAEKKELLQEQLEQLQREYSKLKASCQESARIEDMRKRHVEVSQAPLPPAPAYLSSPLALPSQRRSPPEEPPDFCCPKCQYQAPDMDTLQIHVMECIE", "assay": "cell-based or functional assay"}}, "note": "Bridges are numbered along the chain shown (N, C = ends). Where no end group is shown, it is not given here. [ ]: non-standard residue; d: D form. GluOMe = glutamic acid methyl ester; R8 = C=CCCCCCC[C@@](C)(N)C(=O)O; S5 = C=CCCC[C@](C)(N)C(=O)O; Aib = CC(C)(N)C(=O)O", "data": [{"binder": "Ac-CRQIKIWFQNRRMKWKKLKAQA[R8]IYKARF[S5]AERHAREK-NH2 (staple 23-30; also: extra N-terminal Cys labelled with BODIPY or FITC (label not settled), staple isomer B (trans), With N-terminal antennapedia; also called A-UBI-SAHND306-Q313 (B))", "note": "[A-UBI-SAHN D306-Q313, conformer B]", "values": [{"measurement": "Kd", "setting": "[1]", "result": 0.05, "unit": "µM"}]}, {"binder": "Ac-CLKAQA[R8]IYKARF[S5]A[GluOMe]RHAR[GluOMe]K (staple 7-14; also: N-terminal Cys labelled with BODIPY or FITC (which one not given here), also called D306 R8-Q313 S5 E315MeGlu E320MeGlu)", "note": "[UBI-SAHN D306-Q313 OMe]", "values": [{"measurement": "IC50, NF-κB inhibition in 70Z3-C3 reporter cells", "setting": "[2]", "result": 1.9, "unit": "µM"}, {"measurement": "Kd", "setting": "[3]", "result": 24, "unit": "µM"}]}, {"binder": "CRQIKIWFQNRRMKWKKLK[Aib]Q[Aib]DIYK[Aib]RFQ[Aib]ERH[Aib]REK (also: N-terminal Cys labelled with BODIPY or FITC)", "note": "[A-UBI-AIB]", "values": [{"measurement": "IC 50(µM), NF-κB inhibition in LPS-stimulated 70Z3-C3 lacZ reporter cells", "setting": "[4]", "result": 1.5, "unit": "µM"}, {"measurement": "Kd", "setting": "[5]", "result": 24, "unit": "µM"}, {"measurement": "Kd", "setting": "[1]", "result": 5, "unit": "µM"}]}, {"binder": "Ac-CLK[R8]QADIYK[S5]RFQAERHAREK (staple 4-11; not fully specified (C-terminus); also: extra N-terminal Cys labelled with BODIPY or FITC (label not settled), staple isomer A (cis), also called UBI-SAHNA303-A310 (A); A303 R8-A310 S5)", "note": "[UBI-SAHN A303-A310, conformer A]", "values": [{"measurement": "Kd", "setting": "[1]", "result": 76, "unit": "µM"}]}, {"binder": "Ac-CELAQLQAELD[R8]VQAVVQ[S5]DKQELRKL (staple 12-19; not fully specified (C-terminus); also: extra N-terminal Cys labelled with BODIPY or FITC (label not settled), staple isomer A (cis), 26 aa control peptide; also called Co-SAHN I307-A314 (A); I307 R8-A314 S5)", "note": "[Co-UBI-SAHN I307-A314, conformer A]", "values": [{"measurement": "Kd", "setting": "[5]", "result": "> 10000", "unit": "µM"}]}, {"binder": "Ac-CRQIKIWFQNRRMKWKKLKAQA[R8]IYKARF[S5]AERHAREK-NH2 (staple 23-30; also: extra N-terminal Cys labelled with BODIPY or FITC (label not settled), staple isomer A (cis), With N-terminal antennapedia; also called A-UBI-SAHND306-Q313 (A))", "note": "[A-UBI-SAHN D306-Q313, conformer A]", "values": [{"measurement": "IC 50(µM), NF-κB inhibition in LPS-stimulated 70Z3-C3 lacZ reporter cells", "setting": "[4]", "result": 0.6, "unit": "µM"}, {"measurement": "Kd", "setting": "[1]", "result": 0.06, "unit": "µM"}]}, {"binder": "Ac-CRQIKIWFQNRRMKWKKLK[R8]QADIYK[S5]RFQAERHAREK-NH2 (staple 20-27; not fully specified; also: conformer A, With N-terminal antennapedia; also called A-UBI-SAHNA303-A310 (A))", "note": "[A-UBI-SAHN A303-A310, conformer A]", "values": [{"measurement": "Kd", "setting": "[1]", "result": 0.3, "unit": "µM"}]}, {"binder": "Ac-CELAQLQAELD[R8]VQAVVQ[S5]DKQELRKL (staple 12-19; not fully specified (C-terminus); also: extra N-terminal Cys labelled with BODIPY or FITC (label not settled), staple isomer B (trans), 26 aa control peptide; also called Co-SAHN I307-A314 (B))", "note": "[Co-UBI-SAHN I307-A314, conformer B]", "values": [{"measurement": "Kd", "setting": "[5]", "result": "> 10000", "unit": "µM"}]}, {"binder": "Ac-CRQIKIWFQNRRMKWKKLKAQA[R8]IYKARF[S5]A[GluOMe]RHAR[GluOMe]K-NH2 (staple 23-30; also: N-terminal Cys labelled with BODIPY or FITC, which one is not given here)", "note": "[A-UBI-SAHN D306-Q313 OMe]", "values": [{"measurement": "Kd", "setting": "[3]", "result": 0.06, "unit": "µM"}]}, {"binder": "CLK[Aib]Q[Aib]DIYK[Aib]RFQ[Aib]ERH[Aib]REK (also: extra N-terminal Cys carries BODIPY or FITC label (not settled))", "note": "[UBI-AIB]", "values": [{"measurement": "Kd", "setting": "[5]", "result": "> 10000", "unit": "µM"}, {"measurement": "Kd", "setting": "[1]", "result": "> 10000", "unit": "µM"}]}, {"binder": "Ac-CLK[S5]QAD[S5]YKARFQAERHAREK (staple 4-8; also: N-terminal Cys thiol labelled with BODIPY or FITC (BODIPY FL maleimide), Stapled i,i+4; also called A303 S5-I307 S5)", "note": "[UBI-SAHN A303-I307]", "values": [{"measurement": "Kd", "setting": "[1]", "result": "~360", "unit": "µM"}]}, {"binder": "Ac-CLKAQA[R8]IYKARF[S5]AQRHARQK (staple 7-14; not fully specified (C-terminus); printed as LKAQAX2IYKARFX5AQRHARQK; also: extra N-terminal Cys labelled with BODIPY or FITC, staple cis/trans isomer not given here, also called D306 R8-Q313 S5 E315Q E320Q)", "note": "[UBI-SAHN D306-Q313 Q/Q]", "values": [{"measurement": "IC50, NF-κB inhibition in 70Z3-C3 reporter cells", "setting": "[2]", "result": 0.8, "unit": "µM"}, {"measurement": "Kd", "setting": "[3]", "result": 23, "unit": "µM"}]}, {"binder": "Ac-CLK[R8]QADIYK[S5]RFQAERHAREK (staple 4-11; not fully specified (C-terminus); also: extra N-terminal Cys labelled with BODIPY or FITC (label not settled), staple isomer B (trans), also called UBI-SAHNA303-A310 (B))", "note": "[UBI-SAHN A303-A310, conformer B]", "values": [{"measurement": "Kd", "setting": "[1]", "result": 211, "unit": "µM"}]}, {"binder": "LKAQA[S5]IYK[S5]RFQAQRHARQK (staple 6-10)", "note": "[UBI-SAHN D306-A310 with the double substitution Glu-Gln (E315Q E320Q)]", "values": [{"measurement": "IC50, NF-κB inhibition in 70Z3-C3 reporter cells", "setting": "[2]", "result": 1.3, "unit": "µM"}]}, {"binder": "Ac-CRQIKIWFQNRRMKWKKLK[R8]QADIYK[S5]RFQAERHAREK-NH2 (staple 20-27; also: Cys1 thiol labelled with BODIPY or FITC (which one not fixed), conformer B, With N-terminal antennapedia)", "note": "[A-UBI-SAHN A303-A310, conformer B]", "values": [{"measurement": "IC 50(µM), NF-κB inhibition in LPS-stimulated 70Z3-C3 lacZ reporter cells", "setting": "[4]", "result": 0.6, "unit": "µM"}, {"measurement": "Kd", "setting": "[1]", "result": 0.02, "unit": "µM"}]}, {"binder": "Ac-CRQIKIWFQNRRMKWKKLKAQADIYK[S5]RFQ[S5]ERHAREK-NH2 (staple 27-31; also: N-terminal Cys thiol labelled with BODIPY or FITC (BODIPY FL maleimide), Stapled i,i+4 with N-terminal antennapedia)", "note": "[A-UBI-SAHN A310-A314]", "values": [{"measurement": "IC 50(µM), NF-κB inhibition in LPS-stimulated 70Z3-C3 lacZ reporter cells", "setting": "[4]", "result": 0.43, "unit": "µM"}, {"measurement": "Kd", "setting": "[5]", "result": 21, "unit": "µM"}, {"measurement": "Kd", "setting": "[1]", "result": 0.2, "unit": "µM"}]}, {"binder": "RQIKIWFQNRRMKWKKLKAQA[R8]IYKARF[S5]AERHAREK (staple 22-29; also: staple conformer not given here)", "note": "[A-UBI-SAHN D306-Q313 (conformer not stated)]", "values": [{"measurement": "EC50 of cell death, HLY1 cells, depending on incubation time", "setting": "[6]", "result": "0.65 to 1.1", "unit": "µM"}, {"measurement": "EC50 of cell death, OCY-Ly3 cells, 7 h", "setting": "[6]", "result": 2.6, "unit": "µM"}, {"measurement": "EC50 of cell death, OCY-Ly3 cells, 24 h", "setting": "[6]", "result": 2.1, "unit": "µM"}, {"measurement": "EC50 of cell death, OCY-Ly3 cells, 48 h", "setting": "[6]", "result": 5, "unit": "µM"}]}, {"binder": "Ac-CLKAQA[S5]IYK[S5]RFQAERHAREK (staple 7-11; also: N-terminal Cys labelled with BODIPY or FITC, which one is not given here, Stapled i,i+4; also called D306 R8-A310 S5)", "note": "[UBI-SAHN D306-A310]", "values": [{"measurement": "Kd", "setting": "[1]", "result": 85, "unit": "µM"}]}, {"binder": "Ac-CLKAQADIYK[S5]RFQ[S5]ERHAREK (staple 11-15; also: N-terminal Cys thiol labelled with BODIPY or FITC (BODIPY FL maleimide), Stapled i,i+4; also called A310S5-A314 S5)", "note": "[UBI-SAHN A310-A314]", "values": [{"measurement": "Kd", "setting": "[1]", "result": "~360", "unit": "µM"}]}]}
